Data published in article PMC10110616.

Target: Delta-C70-Ferritin-HexaPro (DCFHP), from Expi293F cells (SARS-CoV-2 (Wuhan-1 isolate) | H. pylori) (UniProt P0DTC2)
Experiment: SEC-MALS

Delta-C70-Ferritin-HexaPro (DCFHP), from Expi293F cells (from UniProt P0DTC2 14-1146; Q9ZLI1 5-167)
stoichiometry N: 24
